# Results: the supplement of paper PMC7877785
# ± gives the uncertainty stated by the source.
# Test: self-splicing fitness, log relative to wild type (ln ratio); higher = more splicing; Tetrahymena group I intron in knt gene, E. coli kanamycin selection, DiMSum; sequences stand for … in CUCUCU…GGAGGGAAAAGUUAUCAGGCAUGCACCUGGUAGCUAGUCUUUAAACCAAUAGAUUGCAUCGGUUUAAAAGGCAAGACCGUCAAAUUGCGGGAAAGGGGUCAACAGCCGUUCAGUACCAAGUCUCAGGGGAAACUUUGAGAUGGCCUUGCAAAGGGUAUGGUAAUAAGCUGACGGACAUGGUCCUAACCACGCAGCCAAGUCCUAAGUCAACAGAUCUUCUGUUGAUAUGGAUGCAGUUCACAGACUAAAUGUCGGUCGGGGAAGAUGUAUUCUUCUCAUAAGAUAUAGUCGGACCUCUCCUUAAUGGGAGCUAGCGGAUGAAGUGAUGCAACACUGGAGCCGCUGGGAACUAAUUUGUAUGCGAAAGUAUAUUGAUUAGUUUUGGAGUACUCGUGGUCG
# Procedure, shortened: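 A randomised library covering all eight P1ex-region intron nucleotides was built with the intron in the knt kanamycin-resistance gene on pET-22b(+) and held in E. coli BL21(DE3). Cells were grown overnight at 37°C or 30°C on LB agar, with or without 25 μg/mL kanamycin, plus 100 μg/mL carbenicillin, 50 μM IPTG and 0.2% rhamnose, and pooled colonies were amplicon-sequenced on an Illumina HiSeq 2500. DiMSum fitness is the error-weighted combination of wild-type-normalised replicate fold changes, kanamycin versus none.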
Sequence,self-splicing fitness (ln) (30 °C),self-splicing fitness (ln) (37 °C)
AAGAAGCAAUAUUACGUUCC,-1.29 ± 0.14,0.0973 ± 0.19
AAUGAGCAAUAUUACGUGAA,-2.17 ± 0.16,-1.8 ± 0.27
UGCCAGCAAUAUUACGUGCG,-1.34 ± 0.077,-1.13 ± 0.091
AAUAAGCAAUAUUACGCGUC,-1.45 ± 0.13,-1.15 ± 0.16
UAACAGCAAUAUUACGUUCG,-0.514 ± 0.057,0.266 ± 0.073
AAGCAGCAAUAUUACGAGUC,-4.83 ± 0.32,-1.87 ± 0.18
GUUCAGCAAUAUUACGUCUU,-0.624 ± 0.056,-0.758 ± 0.064
ACAAAGCAAUAUUACGCUCA,-0.782 ± 0.088,0.156 ± 0.11
UAGAAGCAAUAUUACGGCUC,-2.6 ± 0.3,-0.946 ± 0.3
UCGCAGCAAUAUUACGGGAU,-3.64 ± 0.25,-2.3 ± 0.18
AUUAAGCAAUAUUACGAGGU,-2.83 ± 0.24,-2.1 ± 0.31
UGCUAGCAAUAUUACGGGGG,-0.837 ± 0.13,-2.32 ± 0.32
UCAAAGCAAUAUUACGUCGG,-0.93 ± 0.056,-0.055 ± 0.079
GGACAGCAAUAUUACGUUAG,-1.24 ± 0.066,-0.49 ± 0.085
AGUGAGCAAUAUUACGGCUG,-2.19 ± 0.12,-0.36 ± 0.16
UAAUAGCAAUAUUACGGAGU,-4.07 ± 0.27,-2.82 ± 0.22
UAAAAGCAAUAUUACGAACC,-3.12 ± 0.36,-1.25 ± 0.45
GCCCAGCAAUAUUACGAUCA,-1.65 ± 0.11,-0.633 ± 0.1
GAACAGCAAUAUUACGGGGC,-3.05 ± 0.15,-3.3 ± 0.21
GGCAAGCAAUAUUACGGACA,-0.577 ± 0.085,-0.00922 ± 0.11
AGGAAGCAAUAUUACGGAUC,-1.75 ± 0.16,-1.02 ± 0.22
UGGUAGCAAUAUUACGGAUC,-2.25 ± 0.23,-1.65 ± 0.32

Sequence,self-splicing fitness (ln) (30 °C),self-splicing fitness (ln) (37 °C)
CUUAAGCAAUAUUACGUGAA,-2.87 ± 0.12,-2.55 ± 0.29
UCAAAGCAAUAUUACGCAAU,-5.01 ± 0.34,-2.79 ± 0.21
AUGCAGCAAUAUUACGUCUU,0.0107 ± 0.076,0.303 ± 0.082
GUUUAGCAAUAUUACGUAUC,-0.904 ± 0.28,-0.233 ± 0.36
ACCUAGCAAUAUUACGUAAC,-2.22 ± 0.12,-1.66 ± 0.18
AUGGAGCAAUAUUACGCGCC,,-1.2 ± 0.34
GCCGAGCAAUAUUACGGGGC,-4.27 ± 0.39,-2.28 ± 0.27
GCAGAGCAAUAUUACGGGCA,-2.97 ± 0.17,-1.67 ± 0.15
GUCUAGCAAUAUUACGCCGG,-3.17 ± 0.33,-2.31 ± 0.33
AUGCAGCAAUAUUACGAUAG,-2.99 ± 0.19,-2.57 ± 0.22
AGUCAGCAAUAUUACGAUAA,-0.337 ± 0.087,-0.697 ± 0.1
AAACAGCAAUAUUACGUAGG,-1.85 ± 0.057,-1.34 ± 0.08
ACUCAGCAAUAUUACGGGAG,-1.56 ± 0.051,-1.11 ± 0.067
UGCAAGCAAUAUUACGCACU,-2.92 ± 0.13,-1.28 ± 0.1
CUGUAGCAAUAUUACGGCAU,-3.45 ± 0.31,-1.86 ± 0.27
UAGUAGCAAUAUUACGAGCC,-2.98 ± 0.47,-2.31 ± 0.42
GAGUAGCAAUAUUACGUGGU,-3.48 ± 0.25,-0.852 ± 0.29
GCGAAGCAAUAUUACGAUCC,-1.64 ± 0.21,-1.76 ± 0.3
UGCGAGCAAUAUUACGUUGG,,-1.27 ± 0.26
AGCGAGCAAUAUUACGCUAG,-3.66 ± 0.29,-2.04 ± 0.27
UGAGAGCAAUAUUACGUGUA,-2.07 ± 0.13,
